Data as given in patent US20260132197A1 (NANJING LEGEND BIOTECH, published 2026).

Tests used:
Human CD47-C33G [1] = molecular target: T1, Human CD47-C33G (human, UniProt Q08722 19-135); assay: SPR, IgG captured, CD47 in flow; exp 3;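 note: other target is a CD47 mutein carrying C33G, used to obtain true monovalent affinity, with kon and koff fitted from SPR binding curves and KD derived from both rates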
T1 construct: also called CD47 mutein with C33G mutation

[2] = molecular target: T2, wild type human CD47 (Acro Biosystems, cat. no. CD7-H5227) (human, UniProt Q08722 19-139); assay: SPR, IgG captured, CD47 in flow; exp 3;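 note: other target is a CD47 mutein carrying C33G, used to obtain true monovalent affinity, with kon and koff fitted from SPR binding curves and KD derived from both rates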
T2 construct: Bought protein used as SPR analyte; also called Human CD47 wt; wild-type CD47

Human CD47-C33G [3] = molecular target: T1, Human CD47-C33G; assay: SPR, IgG captured, CD47 in flow; exp 2;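 note: rates derived from association and dissociation curves, KD estimated from them, C33G mutein used to avoid CD47 IgV homodimers for true monovalent affinity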
[4] = molecular target: T2, wild type human CD47 (Acro Biosystems, …); assay: SPR, IgG captured, CD47 in flow; exp 2;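 note: rates derived from association and dissociation curves, KD estimated from them, C33G mutein used to avoid CD47 IgV homodimers for true monovalent affinity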
Human CD47-C33G [5] = molecular target: T1, Human CD47-C33G; assay: SPR, IgG captured, CD47 in flow; exp 4;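 note: biacore T200 SPR using IgG from transfected HEK293 supernatants against wild-type human CD47 or its C33G mutein, rates fitted to association and dissociation curves, KD estimated from them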
[6] = molecular target: T2, wild type human CD47 (Acro Biosystems, …); assay: SPR, IgG captured, CD47 in flow; exp 4;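 note: biacore T200 SPR using IgG from transfected HEK293 supernatants against wild-type human CD47 or its C33G mutein, rates fitted to association and dissociation curves, KD estimated from them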
[7] = molecular target: T3, human CD47 on cells (SHP-77 tumor cells, human red blood cells, CCRF-CEM cells, human CD47 CHO-K1 stable cell … (human, UniProt Q08722 19-323)); assay: flow cytometry on SHP-77 cells
T3 construct: whole, on cells; also called RBC

[8] = molecular target: T3, human CD47 on cells (SHP-77 tumor …); assay: flow cytometry on human RBCs;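 note: antibody binding measured by flow cytometry as geometric mean fluorescence intensity over a range of antibody concentrations, with EC50 and maximum taken from a sigmoidal dose-response fit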

| Binder | Kd (Human CD47-C33G [1]) | koff (Human CD47-C33G [1]) | kon (Human CD47-C33G [1]) | Kd [2] | koff [2] | kon [2] | Kd (Human CD47-C33G [5]) | koff (Human CD47-C33G [5]) | kon (Human CD47-C33G [5]) | Kd [6] | koff [6] | kon [6] | also measured |
| --- | --- | --- | --- | --- | --- | --- | --- | --- | --- | --- | --- | --- | --- |
| 108VH10 / 108VL10.Md (antibody, V domains shown, 4D5-framework series; constant regions not restated for this series; also called VH10 VL10.Md) VH: EVQLVESGGGLVQPGGSLRLSCAASGYSFTHHWIHWVRQAPGKGLEWVAMIDPSDSETRLSQKFKDRFTISADTSKNTAYLQMNSLRAEDTAVYYCSRLGRYYFDYWGQGTLVTVSS VL: DIQMTQSPSSLSASVGDRVTITCRASENVGTYISWYQQKPGKAPKLLIYGASNRYSGVPSRFSGSRSGTDFTLTISSLQPEDFATYYCGESYGHLYTFGQGTKVEIK |  |  |  |  |  |  |  |  |  |  |  |  | Kd (Human CD47-C33G [3]): 42 nM; koff (Human CD47-C33G [3]): 0.0036 s⁻¹; kon (Human CD47-C33G [3]): 86000 M⁻¹ s⁻¹; Kd [4]: 7.1 nM; koff [4]: 0.0016 s⁻¹; kon [4]: 230000 M⁻¹ s⁻¹ |
| 108VH10.Ma / 108VL10.M1 (antibody, V domains shown, 4D5-framework series; constant regions not restated for this series; also called VH10.Ma VL10.M1) VH: EVQLVESGGGLVQPGGSLRLSCAASGFTFSHHWIHWVRQAPGKGLEWVAMIDPSDSETRLSQKFKDRFTISADTSKNTAYLQMNSLRAEDTAVYYCSRLGRYYFDYWGQGTLVTVSS VL: DIQMTQSPSSLSASVGDRVTITCRASENVGTYISWYQQKPGKAPKLLIYGASNRYTGVPSRFSGSRSGTDFTLTISSLQPEDFATYYCGESYGHLYTFGQGTKVEIK |  |  |  |  |  |  |  |  |  |  |  |  | Kd (Human CD47-C33G [3]): 57 nM; koff (Human CD47-C33G [3]): 0.0046 s⁻¹; kon (Human CD47-C33G [3]): 82000 M⁻¹ s⁻¹; Kd [4]: 8.7 nM; koff [4]: 0.002 s⁻¹; kon [4]: 230000 M⁻¹ s⁻¹ |
| 108VH5.M20 / 108VL1.M5 (antibody, human IgG4 S228P, kappa, V domains shown, Full-length IgG4 (S228P), kappa; also called VH5.M20 VL1.M5) VH: EVQLVQSGAEVKKPGASVKVSCKASGYTFTHHWMHWVRQAPGQGLEWMGMIDASDAETRYAQKFQGRVTMTRDTSTSTVYMELSSLRSEDTAVYYCARLGRYYFDYWGQGTLVTVSS VL: EIVLTQSPATLSLSPGERATLSCRASQSVSSYLAWYQQKPGQAPRLLIYGASNRATGIPARFSGSGSGTDFTLTISSLEPEDFAVYYCGESYGHLYTFGGGTKVEIKR |  |  |  |  |  |  | 15 nM | 0.0045 s⁻¹ | 310000 M⁻¹ s⁻¹ | 3 nM | 0.0022 s⁻¹ | 710000 M⁻¹ s⁻¹ |  |
| 108VH5.M26 / 108VL1.M5 (antibody, human IgG4 S228P, kappa, V domains shown, Full-length IgG4 (S228P), kappa; also called VH5.M26 VL1.M5) VH: EVQLVQSGAEVKKPGASVKVSCKASGYTFTHHWMHWVRQAPGQGLEWMGMIDASDVETRYAQKFQGRVTMTRDTSTSTVYMELSSLRSEDTAVYYCARLGRYYFDYWGQGTLVTVSS VL: EIVLTQSPATLSLSPGERATLSCRASQSVSSYLAWYQQKPGQAPRLLIYGASNRATGIPARFSGSGSGTDFTLTISSLEPEDFAVYYCGESYGHLYTFGGGTKVEIKR |  |  |  |  |  |  | 23 nM | 0.0054 s⁻¹ | 240000 M⁻¹ s⁻¹ | 4.6 nM | 0.0026 s⁻¹ | 570000 M⁻¹ s⁻¹ |  |
| 108VH5.M24 / 108VL1.M5 (antibody, human IgG4 S228P, kappa, V domains shown, Full-length IgG4 (S228P), kappa; also called VH5.M24 VL1.M5) VH: EVQLVQSGAEVKKPGASVKVSCKASGYTFTHHWMHWVRQAPGQGLEWMGMIDASDLETRYAQKFQGRVTMTRDTSTSTVYMELSSLRSEDTAVYYCARLGRYYFDYWGQGTLVTVSS VL: EIVLTQSPATLSLSPGERATLSCRASQSVSSYLAWYQQKPGQAPRLLIYGASNRATGIPARFSGSGSGTDFTLTISSLEPEDFAVYYCGESYGHLYTFGGGTKVEIKR |  |  |  |  |  |  | 31 nM | 0.0067 s⁻¹ | 220000 M⁻¹ s⁻¹ | 5.7 nM | 0.003 s⁻¹ | 520000 M⁻¹ s⁻¹ | EC50 [7]: 9.8 nM; Fitted Maximal MFI [7]: 38700 MFI; EC50 [8]: 4 nM; Fitted Maximal MFI [8]: 29200 MFI |

More lines, main results first:

| Kd (Human CD47-C33G [1]) | koff (Human CD47-C33G [1]) | kon (Human CD47-C33G [1]) | Kd [2] | koff [2] | kon [2] | Kd (Human CD47-C33G [5]) | koff (Human CD47-C33G [5]) | kon (Human CD47-C33G [5]) | Kd [6] | koff [6] | kon [6] | Binder | also measured |
| --- | --- | --- | --- | --- | --- | --- | --- | --- | --- | --- | --- | --- | --- |
| 160 nM | 0.013 s⁻¹ | 79000 M⁻¹ s⁻¹ | 17 nM | 0.0066 s⁻¹ | 380000 M⁻¹ s⁻¹ |  |  |  |  |  |  | 108VH10.Mh / 108VL10.Me (antibody, V domains shown, 4D5-framework series; constant regions not restated for this series; also called VH10.Mh VL10.Me) VH: EVQLVESGGGLVQPGGSLRLSCAASGFTFSHHWIHWVRQAPGKGLEWVAMIDASDSETRLVQKFKDRFTISADTSKNTAYLQMNSLRAEDTAVYYCSRLGRYYFDYWGQGTLVTVSS VL: DIQMTQSPSSLSASVGDRVTITCRASQSISSYLNWYQQKPGKAPKLLIYGASSRYSGVPSRFSGSRSGTDFTLTISSLQPEDFATYYCGESYGHLYTFGQGTKVEIK |  |
| 38 nM | 0.0078 s⁻¹ | 210000 M⁻¹ s⁻¹ | 5.8 nM | 0.0035 s⁻¹ | 610000 M⁻¹ s⁻¹ |  |  |  |  |  |  | 108VH10.Mj / 108VL10.Me (antibody, V domains shown, 4D5-framework series; constant regions not restated for this series; also called VH10.Mj VL10.Me) VH: EVQLVESGGGLVQPGGSLRLSCAASGFTFSHHWIHWVRQAPGKGLEWVAMIDASDSETRLSQSFKDRFTISADTSKNTAYLQMNSLRAEDTAVYYCSRLGRYYFDYWGQGTLVTVSS VL: DIQMTQSPSSLSASVGDRVTITCRASQSISSYLNWYQQKPGKAPKLLIYGASSRYSGVPSRFSGSRSGTDFTLTISSLQPEDFATYYCGESYGHLYTFGQGTKVEIK |  |
| 36 nM | 0.0073 s⁻¹ | 200000 M⁻¹ s⁻¹ | 5.6 nM | 0.0034 s⁻¹ | 610000 M⁻¹ s⁻¹ |  |  |  |  |  |  | 108VH10.Ml / 108VL10.Me (antibody, V domains shown, 4D5-framework series; constant regions not restated for this series; also called VH10.Ml VL10.Me) VH: EVQLVESGGGLVQPGGSLRLSCAASGFTFSHHWIHWVRQAPGKGLEWVAMIDASDSETRLSQKFKGRFTISADTSKNTAYLQMNSLRAEDTAVYYCSRLGRYYFDYWGQGTLVTVSS VL: DIQMTQSPSSLSASVGDRVTITCRASQSISSYLNWYQQKPGKAPKLLIYGASSRYSGVPSRFSGSRSGTDFTLTISSLQPEDFATYYCGESYGHLYTFGQGTKVEIK |  |
